Results taken from paper PMC6037785, “Microtubule minus-end aster organization is driven by processive HSET-tubulin clusters” (Nature Communications, 2018).

Columns and labels:
[1] = molecular target: unlabeled HSET (full-length HSET with N-terminal 6x His tag, no EGFP) (human) (UniProt Q9BW19); assay: fluorescence intensity analysis of moving particles (TIRF); first frame of moving EGFP-HSET (with unlabeled tubulin) or moving Cy5-tubulin (10 nM, with 10 nM unlabeled HSET) on GMPCPP-MTs compared with single molecules adhered to glass; BRB80 + 50 mM KCl with 0.5 mg/mL casein
[2] = molecular target: the molecule itself; assay: single-molecule stepwise photobleaching (TIRF); single EGFP-tagged molecules adhered to a glass surface; photobleaching traces compared with EGFP-XMCAK, a known dimer; monomers to dimer

Molecule	brightness of moving Cy5-tubulin particles (with HSET) over single Cy5-tubulin molecules [1]	stoichiometry N [2]
Cy5-tubulin (bovine brain tubulin labeled with NHS-Cy5, 100% labeled) (from UniProt Q6B856 1-445) (complex)	11.8 fold	
EGFP-HSETΔMotor (domain or fragment, human, UniProt Q9BW19 1-304, looked up, HSET/KIFC1, Homo sapiens kinesin-14, amino acids 1-304 (tail and stalk, motor domain deleted); also called pET15b-HTa-EGFP-HSETΔMotor; source: E. coli BL21DE3, purified (Ni-NTA, size exclusion chromatography); not shown: His6, N-terminal, kept; EGFP, N-terminal, kept) MDPQRSPLLEVKGNIELKRPLIKAPSQLPLSGSRLKRRPDQMEDGLEPEKKRTRGLGATTKITTSHPRVPSLTTVPQTQGQTTAQKVSKKTGPRCSTAIATGLKNQKPVPAVPVQKSGTSGVPPMAGGKKPSKRPAWDLKGQLCDLNAELKRCRERTQTLDQENQQLQDQLRDAQQQVKALGTERTTLEGHLAKVQAQAEQGQQELKNLRACVLELEERLSTQEGLVQELQKKQVELQEERRGLMSQLEEKERRLQTSEAALSSSQAEVASLRQETVAQAALLTEREERLHGLEMERRRLHNQL		2
EGFP-HSETΔTail (domain or fragment, human, UniProt Q9BW19 139-673, looked up, HSET/KIFC1, Homo sapiens kinesin-14, amino acids 139-673 (stalk and motor, N-terminal tail deleted); also called pFASTBAC-HTa-EGFP-HSETΔTail; tailless HSET; source: Sf9 cells (baculovirus), purified (Ni-NTA, size exclusion chromatography); not shown: His6, N-terminal, kept; EGFP, N-terminal, kept) LKGQLCDLNAELKRCRERTQTLDQENQQLQDQLRDAQQQVKALGTERTTLEGHLAKVQAQAEQGQQELKNLRACVLELEERLSTQEGLVQELQKKQVELQEERRGLMSQLEEKERRLQTSEAALSSSQAEVASLRQETVAQAALLTEREERLHGLEMERRRLHNQLQELKGNIRVFCRVRPVLPGEPTPPPGLLLFPSGPGGPSDPPTRLSLSRSDERRGTLSGAPAPPTRHDFSFDRVFPPGSGQDEVFEEIAMLVQSALDGYPVCIFAYGQTGSGKTFTMEGGPGGDPQLEGLIPRALRHLFSVAQELSGQGWTYSFVASYVEIYNETVRDLLATGTRKGQGGECEIRRAGPGSEELTVTNARYVPVSCEKEVDALLHLARQNRAVARTAQNERSSRSHSVFQLQISGEHSSRGLQCGAPLSLVDLAGSERLDPGLALGPGERERLRETQAINSSLSTLGLVIMALSNKESHVPYRNSKLTYLLQNSLGGSAKMLMFVNISPLEENVSESLNSLRFASKVNQCVIGTAQANRK		2
EGFP-HSET-DoubleTail (other, human, HSET/KIFC1, Homo sapiens kinesin-14, amino acids 1-307 (tail and stalk); flexible amino acid linker; HSET/KIFC1, Homo sapiens kinesin-14, amino acids 1-137 (second copy of the N-terminal tail in place of the motor domain); also called pET15b-HTa-EGFP-HSETDoubleTail; source: E. coli BL21DE3, purified (Ni-NTA, size exclusion chromatography); not shown: His6, N-terminal, kept; EGFP, N-terminal, kept) MDPQRSPLLEVKGNIELKRPLIKAPSQLPLSGSRLKRRPDQMEDGLEPEKKRTRGLGATTKITTSHPRVPSLTTVPQTQGQTTAQKVSKKTGPRCSTAIATGLKNQKPVPAVPVQKSGTSGVPPMAGGKKPSKRPAWDLKGQLCDLNAELKRCRERTQTLDQENQQLQDQLRDAQQQVKALGTERTTLEGHLAKVQAQAEQGQQELKNLRACVLELEERLSTQEGLVQELQKKQVELQEERRGLMSQLEEKERRLQTSEAALSSSQAEVASLRQETVAQAALLTEREERLHGLEMERRRLHNQLQELGGSGGSMDPQRSPLLEVKGNIELKRPLIKAPSQLPLSGSRLKRRPDQMEDGLEPEKKRTRGLGATTKITTSHPRVPSLTTVPQTQGQTTAQKVSKKTGPRCSTAIATGLKNQKPVPAVPVQKSGTSGVPPMAGGKKPSKRPAW		2
EGFP-HSET (full-length HSET/KIFC1, human kinesin-14, with N-terminal 6x His tag and EGFP) (natural protein, UniProt Q9BW19 1-673, looked up, HSET/KIFC1, Homo sapiens kinesin-14, amino acids 1-673; No tag cleavage is described; also called full-length EGFP-HSET; pFASTBAC-HTa-EGFP-HSET; source: Sf9 cells (baculovirus), purified (Ni-NTA, size exclusion chromatography); not shown: His6, N-terminal, kept; EGFP, N-terminal, kept) MDPQRSPLLEVKGNIELKRPLIKAPSQLPLSGSRLKRRPDQMEDGLEPEKKRTRGLGATTKITTSHPRVPSLTTVPQTQGQTTAQKVSKKTGPRCSTAIATGLKNQKPVPAVPVQKSGTSGVPPMAGGKKPSKRPAWDLKGQLCDLNAELKRCRERTQTLDQENQQLQDQLRDAQQQVKALGTERTTLEGHLAKVQAQAEQGQQELKNLRACVLELEERLSTQEGLVQELQKKQVELQEERRGLMSQLEEKERRLQTSEAALSSSQAEVASLRQETVAQAALLTEREERLHGLEMERRRLHNQLQELKGNIRVFCRVRPVLPGEPTPPPGLLLFPSGPGGPSDPPTRLSLSRSDERRGTLSGAPAPPTRHDFSFDRVFPPGSGQDEVFEEIAMLVQSALDGYPVCIFAYGQTGSGKTFTMEGGPGGDPQLEGLIPRALRHLFSVAQELSGQGWTYSFVASYVEIYNETVRDLLATGTRKGQGGECEIRRAGPGSEELTVTNARYVPVSCEKEVDALLHLARQNRAVARTAQNERSSRSHSVFQLQISGEHSSRGLQCGAPLSLVDLAGSERLDPGLALGPGERERLRETQAINSSLSTLGLVIMALSNKESHVPYRNSKLTYLLQNSLGGSAKMLMFVNISPLEENVSESLNSLRFASKVNQCVIGTAQANRK		2
